# Laboratory results published in the supplement of paper PMC9112550, “Optimization of the antimicrobial peptide Bac7 by deep mutational scanning” (BMC Biology, 2022).
# System: Escherichia coli TOP10
# Assay: shrunken log2 fold change of peptide-encoding DNA abundance (4.5 h post-induction vs induction); higher = less antimicrobial activity (less host growth inhibition)
# Settings: time post-induction: 4.5 h; library: site-saturation at positions 5, 18, 19, 20
# 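Further: peptides expressed intracellularly from a pBAD plasmid library in pooled LB shake-flask culture, induced with 0.3% L-arabinose, DNA abundance read by NGS, three biological replicates, DESeq2 with apeglm shrinkage.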
row,Sequence,shrunken log2 fold change
1,RRIRTRPPRLPRPRPRPYFFPRP,-0.684
2,RRIRCRPPRLPRPRPRPCGCPRP,-0.0301
3,RRIRIRPPRLPRPRPRPLTIPRP,-0.536
4,RRIRPRPPRLPRPRPRPHTRPRP,0.171
5,RRIRERPPRLPRPRPRPTYAPRP,-0.0017
6,RRIRKRPPRLPRPRPRPGQYPRP,0.0797
7,RRIRKRPPRLPRPRPRPNIYPRP,-0.275
8,RRIRRRPPRLPRPRPRPAGMPRP,0.102
9,RRIRPRPPRLPRPRPRPHTLPRP,-0.195
10,RRIRVRPPRLPRPRPRPWSQPRP,-0.219
11,RRIRNRPPRLPRPRPRPPEKPRP,0.0323
12,RRIRKRPPRLPRPRPRPQFLPRP,0.0482
13,RRIRYRPPRLPRPRPRPECGPRP,-0.114
14,RRIRSRPPRLPRPRPRPVYYPRP,-0.71
15,RRIRVRPPRLPRPRPRPGCAPRP,0.757
16,RRIRCRPPRLPRPRPRPDHHPRP,-0.246
17,RRIRRRPPRLPRPRPRPAWPPRP,0.446
18,RRIRKRPPRLPRPRPRPHVPPRP,0.207
19,RRIRVRPPRLPRPRPRPVYNPRP,-0.738
20,RRIRARPPRLPRPRPRPDWYPRP,-0.213
21,RRIRTRPPRLPRPRPRPAYMPRP,-0.384
22,RRIRLRPPRLPRPRPRPEVAPRP,0.475
23,RRIRSRPPRLPRPRPRPDQQPRP,0.0193
24,RRIRERPPRLPRPRPRPMRAPRP,0.763
25,RRIRTRPPRLPRPRPRPNEFPRP,0.0177

row,Sequence,shrunken log2 fold change
1,RRIRMRPPRLPRPRPRPTYYPRP,-0.554
2,RRIRLRPPRLPRPRPRPKKDPRP,0.0575
3,RRIRCRPPRLPRPRPRPDIDPRP,-0.182
4,RRIRFRPPRLPRPRPRPVCEPRP,0.182
5,RRIRCRPPRLPRPRPRPVGCPRP,0.204
6,RRIRSRPPRLPRPRPRPNDLPRP,-0.23
7,RRIRSRPPRLPRPRPRPPVRPRP,0.337
8,RRIRFRPPRLPRPRPRPRQMPRP,-0.0877
9,RRIRERPPRLPRPRPRPIEEPRP,-0.0104
10,RRIRVRPPRLPRPRPRPECYPRP,-0.035
11,RRIRNRPPRLPRPRPRPAHHPRP,-0.0626
12,RRIRVRPPRLPRPRPRPYYVPRP,-1.97
13,RRIRTRPPRLPRPRPRPGENPRP,0.182
14,RRIRARPPRLPRPRPRPWLIPRP,0.111
15,RRIRGRPPRLPRPRPRPTFEPRP,0.923
16,RRIRIRPPRLPRPRPRPSTIPRP,-0.361
17,RRIRKRPPRLPRPRPRPVNLPRP,-0.0889
18,RRIRHRPPRLPRPRPRPYMGPRP,-0.201
19,RRIRPRPPRLPRPRPRPNFEPRP,0.275
20,RRIRKRPPRLPRPRPRPWDAPRP,0.496
21,RRIRVRPPRLPRPRPRPTWVPRP,0.228
22,RRIRFRPPRLPRPRPRPSKVPRP,-0.293
23,RRIRQRPPRLPRPRPRPPRTPRP,0.669
24,RRIRLRPPRLPRPRPRPFVQPRP,-0.284
25,RRIRNRPPRLPRPRPRPGEQPRP,0.137

row,Sequence,shrunken log2 fold change
1,RRIRQRPPRLPRPRPRPRHNPRP,-0.0654
2,RRIRVRPPRLPRPRPRPKGNPRP,0.143
3,RRIRGRPPRLPRPRPRPPTMPRP,0.429
4,RRIRTRPPRLPRPRPRPRAFPRP,0.184
5,RRIRMRPPRLPRPRPRPARLPRP,0.201
6,RRIRYRPPRLPRPRPRPKCLPRP,-0.245
7,RRIRWRPPRLPRPRPRPEHEPRP,0.623
8,RRIRMRPPRLPRPRPRPENPPRP,2.79
9,RRIRLRPPRLPRPRPRPWLQPRP,0.0325
10,RRIRLRPPRLPRPRPRPCCGPRP,-0.00366
11,RRIRLRPPRLPRPRPRPCAAPRP,0.236
12,RRIRSRPPRLPRPRPRPVVYPRP,-0.0697
13,RRIRSRPPRLPRPRPRPQRMPRP,-0.133
14,RRIRDRPPRLPRPRPRPRDWPRP,0.619
15,RRIRPRPPRLPRPRPRPSTCPRP,-0.11
16,RRIRWRPPRLPRPRPRPVKMPRP,0.125
17,RRIRGRPPRLPRPRPRPERAPRP,1.4
18,RRIRGRPPRLPRPRPRPDCGPRP,0.879
19,RRIRHRPPRLPRPRPRPKQRPRP,0.41
20,RRIRVRPPRLPRPRPRPYTRPRP,-0.0163
21,RRIRTRPPRLPRPRPRPSARPRP,0.0995
22,RRIRIRPPRLPRPRPRPMIFPRP,-0.266
23,RRIRIRPPRLPRPRPRPYGGPRP,0.00177
24,RRIRKRPPRLPRPRPRPDHGPRP,1.01
25,RRIRYRPPRLPRPRPRPKYAPRP,-0.532
